# Laboratory results reported in JP2022142155A (dated 2022).
# B1: 配列番号:40により表されるアミノ酸配列を含む抗HSA抗体 (VHH)
# VHH: QVQLVESGGGLVQAGKSLRLSCTASGSIPSIGVTGWHRQAPGKQRELVATISQGGHINYFESVKGRFTISRDNAKNTVYLQMNSLKPEDTGVYYCNAFWLPLRLNDYWGQGTQVTVSS
# notes: Expressed in E. coli from pRA2(+); also called H32A; H32A; not shown: C-terminal His tag from vector pRA2(+) (Ni-NTA purification, anti-His detection)
# B2: 配列番号:38により表されるアミノ酸配列を含む抗HSA抗体 (VHH)
# VHH: QVQLVESGGGLVQTGGSLRLSCAASGRIVTVAAMGWFRQAPGKEREFVASISWSGRSRSYADSVKGRFTISRDNAKNTAYLQMSSLKPEDTGVYYCALGGNSYSSDYARYDYWGQGTQVTVSS
# notes: Expressed in E. coli from pRA2(+); also called H10A; H10A; not shown: C-terminal His tag from vector pRA2(+) (Ni-NTA purification, anti-His detection)
# B3: 配列番号:37により表されるアミノ酸配列を含む抗HSA抗体 (VHH)
# VHH: EVQLVESGGGLVHPGGSLRLSCVASGSDVSSDTMGWFRRAPGKQRELVAAIAWGGSTHYAESVKGRFTISRDNAKNTVYLQLSNLKPEDTAVYLCNTRNYWGQGTQVTVSS
# notes: Expressed in E. coli from pRA2(+); also called H08A; H08A; not shown: C-terminal His tag from vector pRA2(+) (Ni-NTA purification, anti-His detection)
# B4: 配列番号:36により表されるアミノ酸配列を含む抗HSA抗体 (VHH)
# VHH: EVQLVESGGGFVQPGGSLRLSCVASGFTFERFDMGWVRQAPGKSLEWVSRFNSDDGRKSYADSVKGRFAISRDNAENTLYLQMNNLIPEDTAMYYCVKCQAYTSCTDAEDRGQGTQVTVSS
# notes: Expressed in E. coli BL21(DE3) pLysS from pRA2(+) behind a vector-encoded leader; also called H01A; H01A; not shown: C-terminal His tag from vector pRA2(+) (Ni-NTA purification, anti-His detection)
# B5: 配列番号:39により表されるアミノ酸配列を含む抗HSA抗体 (VHH)
# VHH: QLQLVESGGGLVQAGGSLRLSCAASGRTFRFSAMGWFRQAPGKEREFAAAISWTGGTTAYAESVKGRFIISRDNAKNTVYLQMNSLKPEDTAVYYCAAGPIPSPASRYDDWGQGTQVTVSS
# notes: Expressed in E. coli from pRA2(+); also called H14A; H14A; not shown: C-terminal His tag from vector pRA2(+) (Ni-NTA purification, anti-His detection)
# Target: T1, ヒト血清アルブミン (human, UniProt P02768 25-609)
# T1 construct: also called HSA; HSA
# T1 sequence (P02768 25-609 limits assumed): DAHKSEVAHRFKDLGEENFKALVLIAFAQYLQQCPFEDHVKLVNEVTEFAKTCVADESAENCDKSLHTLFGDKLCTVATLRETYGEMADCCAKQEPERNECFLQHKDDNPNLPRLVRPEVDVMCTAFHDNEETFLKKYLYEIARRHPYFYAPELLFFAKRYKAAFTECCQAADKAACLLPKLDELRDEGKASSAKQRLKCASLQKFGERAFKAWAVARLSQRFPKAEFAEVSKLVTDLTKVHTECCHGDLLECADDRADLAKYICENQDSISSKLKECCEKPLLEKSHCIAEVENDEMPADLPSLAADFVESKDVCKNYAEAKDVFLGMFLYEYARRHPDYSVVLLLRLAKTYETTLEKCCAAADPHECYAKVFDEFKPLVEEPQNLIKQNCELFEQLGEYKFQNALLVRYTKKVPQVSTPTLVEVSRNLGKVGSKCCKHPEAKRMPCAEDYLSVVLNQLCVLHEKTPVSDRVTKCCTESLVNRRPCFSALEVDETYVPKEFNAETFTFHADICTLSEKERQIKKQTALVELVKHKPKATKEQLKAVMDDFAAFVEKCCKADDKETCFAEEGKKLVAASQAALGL
# Test: SPR (Biacore T200), HSA amine-coupled on CM5 chip, VHH as analyte
row,Binder,Kd
1,B1,0.077 nM
2,B2,124 nM
3,B3,62.2 nM
4,B4,22.9 nM
5,B5,296 nM
